# Test results taken from patent US7262024.
# B1: VP56 (protein)
# chain: MQIGQPTLPNNSLATPSPSLPINPGTSHEKHEEDGYGFDANRIIAEDESGFVMSHGDSNHYFFKKDLTEEQIKAAQKHLEEVKTSHNGLDSLSSHEQDYPGNAKEMKDLDKKIEEKIAGIMKQYGVKRESIVVNKEKNAIIYPSGDHHHADPIDEHKPVGIGHSHSNYELFKPEEGVAKKEGNKVYTGEELTNVVNLLKNSTFNNQNFTLANGQKRVSFSFPPELEKKLGINMLVKLITPDGKVLEKVSGKVFGEGVGNIANFELDQPYLPGQTFKYTIASKDYPEVSYDGTFTVPTSLAYKMASQTIFYPFHAGDTYLRVNPQFAVPKGTDALVRVFDEFHGNAYLENNYKVGEIKLPIPKLNQGTTRTAGNKIPVTFMANAYLDNQSTYIVEVPILEKENQTDKPSILPQFKRNKAQENSKLDEKVEEPKTSEKVEKEKLSETGNSTSNSTLEEVPTVDPVQEKVAKFAESYGMKLENVLFNMDGTIELYLPSGEVIKKNMADFTGEAPQGNGENKPSENGKVSTGTVENQPTENKPADSLPEAPNEKPVKPENSTDNGMLNPEGNVGSDPMLDPALEEAPAVDPVQEKLEKFTASYGLGLDSVIFNMDGTIELRLPSGEVIKKNLSDFIA
# B2: New 139 (protein)
# chain: MQITYTDDEIQVAKLAGKYTTEDGYIFDGGWIKKDSLSEAERAAAQAYAKEKGLTPPSTDHQDSGNTEAKGAEAIYNRVKAAKKVPLDRMPYNLQYTVEVKNGSLIIPHHDHYHNIKFEWFDEGLYEAPKGYSLEDLLATVKYYVEGGNASDHVRKNKADQDSKPDEDKEHDEVSEPTHPESDEKENHAGLNPSADNLYKPSTDTEETEEEAEDTTDEAEIPGGPSIRQNAMETLTGLKSSLLLGTKDNNTISAEVDSLLALLKESQPAPIQ
# B3: VP147 (protein)
# chain: MQITYTDDEIQVAKLAGKYTTEDGYIFDGGWIKKDSLSEAERAAAQAYAKEKGLTPPSTDHQDSGNTEAKGAEAIYNRVKAAKKVPLDRMPYNLQYTVEVKNGSLIIPHHDHYHNIKFEWFDEGLYEAPKGYSLEDLLATVKYYVEGGNASDHVRKNKADQDSKPDEDKEHDEVSEPTHPESDEKENHAGLNPSADNLYKPSTDTEETEEEAEDTTDEAEIPGGPSIRQNAMETLTGLKSSLLLGTKDNNTISAEVDSLLALLKESQPAPIQGGQIGQPTLPNNSLATPSPSLPINPGTSHEKHEEDGYGFDANRIIAEDESGFVMSHGDSNHYFFKKDLTEEQIKAAQKHLEEVKTSHNGLDSLSSHEQDYPGNAKEMKDLDKKIEEKIAGIMKQYGVKRESIVVNKEKNAIIYPSGDHHHADPIDEHKPVGIGHSHSNYELFKPEEGVAKKEGNKVYTGEELTNVVNLLKNSTFNNQNFTLANGQKRVSFSFPPELEKKLGINMLVKLITPDGKVLEKVSGKVFGEGVGNIANFELDQPYLPGQTFKYTIASKDYPEVSYDGTFTVPTSLAYKMASQTIFYPFHAGDTYLRVNPQFAVPKGTDALVRVFDEFHGNAYLENNYKVGEIKLPIPKLNQGTTRTAGNKIPVTFMANAYLDNQSTYIVEVPILEKENQTDKPSILPQFKRNKAQENSKLDEKVEEPKTSEKVEKEKLSETGNSTSNSTLEEVPTVDPVQEKVAKFAESYGMKLENVLFNMDGTIELYLPSGEVIKKNMADFTGEAPQGNGENKPSENGKVSTGTVENQPTENKPADSLPEAPNEKPVKPENSTDNGMLNPEGNVGSDPMLDPALEEAPAVDPVQEKLEKFTASYGLGLDSVIFNMDGTIELRLPSGEVIKKNLSDFIA
# Columns and labels:
# [1] = target: Mouse serum rVP147-AlOH (mouse 1); test: flow cytometry, inhibition of surface labeling by serum rVP147-AlOH (mouse 1)
# [2] = target: Mouse serum rVP147-AlOH (mouse 2); test: flow cytometry, inhibition of surface labeling by serum rVP147-AlOH (mouse 2)
# [3] = target: Mouse serum rVP147-QuilA (mouse 2); test: flow cytometry, inhibition of surface labeling by serum rVP147-QuilA (mouse 2)
# [4] = target: Mouse serum rVP56-AlOH (mouse 2); test: flow cytometry, inhibition of surface labeling by serum rVP56-AlOH (mouse 2)
# [5] = target: Mouse serum rVP56-AlOH (mouse 1); test: flow cytometry, inhibition of surface labeling by serum rVP56-AlOH (mouse 1)
# [6] = target: Mouse serum rVP147-QuilA (mouse 1); test: flow cytometry, inhibition of surface labeling by serum rVP147-QuilA (mouse 1)
# [7] = target: Mouse serum rVP56-QuilA (mouse 1); test: flow cytometry, inhibition of surface labeling by serum rVP56-QuilA (mouse 1)
# [8] = target: Mouse serum rVP56-QuilA (mouse 2); test: flow cytometry, inhibition of surface labeling by serum rVP56-QuilA (mouse 2)
Binder,% inhibition [1] [%],% inhibition [2] [%],% inhibition [3] [%],% inhibition [4] [%],% inhibition [5] [%],% inhibition [6] [%],% inhibition [7] [%],% inhibition [8] [%]
B1,50,61.6,74.1,100,99.7,68.1,99.7,99.8
B2,53.8,49.7,40.7,0,0,41.3,0.2,–
B3,99.7,99.8,99.6,100,99.6,99.7,99.5,99.3
